Test [1] concerns the target T1, Complement C2 (human) (human, UniProt P06681 21-752).
T1 sequence: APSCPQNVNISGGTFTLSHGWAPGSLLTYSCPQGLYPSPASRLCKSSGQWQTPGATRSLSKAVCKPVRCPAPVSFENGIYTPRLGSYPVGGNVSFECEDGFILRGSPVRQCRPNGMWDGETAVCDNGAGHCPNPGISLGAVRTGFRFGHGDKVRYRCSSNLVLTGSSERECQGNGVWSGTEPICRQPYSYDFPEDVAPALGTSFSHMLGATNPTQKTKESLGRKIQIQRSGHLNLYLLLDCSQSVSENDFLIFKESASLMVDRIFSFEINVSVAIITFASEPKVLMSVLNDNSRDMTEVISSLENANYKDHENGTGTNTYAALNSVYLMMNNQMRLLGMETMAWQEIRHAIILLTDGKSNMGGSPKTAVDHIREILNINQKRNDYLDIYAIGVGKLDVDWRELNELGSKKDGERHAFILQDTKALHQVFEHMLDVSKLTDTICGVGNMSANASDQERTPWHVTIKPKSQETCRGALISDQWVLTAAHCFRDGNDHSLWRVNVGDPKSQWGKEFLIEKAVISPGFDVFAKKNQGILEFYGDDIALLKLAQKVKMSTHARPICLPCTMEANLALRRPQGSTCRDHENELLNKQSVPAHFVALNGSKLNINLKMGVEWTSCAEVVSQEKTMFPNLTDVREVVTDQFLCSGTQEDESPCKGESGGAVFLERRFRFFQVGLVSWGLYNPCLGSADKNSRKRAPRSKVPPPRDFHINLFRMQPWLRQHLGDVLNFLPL
In words: cell-based or functional assay.

The target in test [2] is T2, M84R ecotin (UniProt P23827 21-162).
T2 construct: Position 84 is probably counted on mature ecotin, not on the precursor entry; also called ecotin M84R
In words: active site titration of purified CB155 with M84R ecotin, residual Ac-RQAR-AMC activity. The procedure: The purified protein was assayed for specific activity, purity, and endotoxin levels. The specific activity or amount of active protease in each prep was determined by active site titration by incubation with an inhibitor that binds in the active site of the functional protease at varying concentrations followed by addition to a fluorogenic substrate for measurement of substrate proteolysis. The amount of active enzyme was calculated from a plot of the residual protease activity against the inhibitor concentration where the intercept corresponds to the concentration of active protease. […] Enzyme activity was monitored at 30° C. in the presence of 40 μM Ac-RQAR-AMC in assay buffer containing 50 mM Tris pH 8.0, 50 mM NaCl, and 0.01% Tween-20 (for trypsin activity, 10 mM CaCl2 was added) on a Gemini XPS spectrafluorimeter (Excitation: 380 nm; Emission: 450 nm; Cut-off: 435 mn). Purity of the protein preparation was assessed by resolution of the protein product on SDS-PAGE followed by staining with Coomassie Blue. […] The level of endotoxin in each prep was determined by Liumlus Amebocyte Lysate Chromo-LAL assay (Associated of Cape Cod) according to the manufacturer's protocol with the following modifications. […]

Test [3] has as its target T3, alpha-2 macroglobulin (in human plasma) (human, UniProt P01023 24-1474).
T3 construct: Not purified: the endogenous protein of the plasma
T3 sequence (looked up): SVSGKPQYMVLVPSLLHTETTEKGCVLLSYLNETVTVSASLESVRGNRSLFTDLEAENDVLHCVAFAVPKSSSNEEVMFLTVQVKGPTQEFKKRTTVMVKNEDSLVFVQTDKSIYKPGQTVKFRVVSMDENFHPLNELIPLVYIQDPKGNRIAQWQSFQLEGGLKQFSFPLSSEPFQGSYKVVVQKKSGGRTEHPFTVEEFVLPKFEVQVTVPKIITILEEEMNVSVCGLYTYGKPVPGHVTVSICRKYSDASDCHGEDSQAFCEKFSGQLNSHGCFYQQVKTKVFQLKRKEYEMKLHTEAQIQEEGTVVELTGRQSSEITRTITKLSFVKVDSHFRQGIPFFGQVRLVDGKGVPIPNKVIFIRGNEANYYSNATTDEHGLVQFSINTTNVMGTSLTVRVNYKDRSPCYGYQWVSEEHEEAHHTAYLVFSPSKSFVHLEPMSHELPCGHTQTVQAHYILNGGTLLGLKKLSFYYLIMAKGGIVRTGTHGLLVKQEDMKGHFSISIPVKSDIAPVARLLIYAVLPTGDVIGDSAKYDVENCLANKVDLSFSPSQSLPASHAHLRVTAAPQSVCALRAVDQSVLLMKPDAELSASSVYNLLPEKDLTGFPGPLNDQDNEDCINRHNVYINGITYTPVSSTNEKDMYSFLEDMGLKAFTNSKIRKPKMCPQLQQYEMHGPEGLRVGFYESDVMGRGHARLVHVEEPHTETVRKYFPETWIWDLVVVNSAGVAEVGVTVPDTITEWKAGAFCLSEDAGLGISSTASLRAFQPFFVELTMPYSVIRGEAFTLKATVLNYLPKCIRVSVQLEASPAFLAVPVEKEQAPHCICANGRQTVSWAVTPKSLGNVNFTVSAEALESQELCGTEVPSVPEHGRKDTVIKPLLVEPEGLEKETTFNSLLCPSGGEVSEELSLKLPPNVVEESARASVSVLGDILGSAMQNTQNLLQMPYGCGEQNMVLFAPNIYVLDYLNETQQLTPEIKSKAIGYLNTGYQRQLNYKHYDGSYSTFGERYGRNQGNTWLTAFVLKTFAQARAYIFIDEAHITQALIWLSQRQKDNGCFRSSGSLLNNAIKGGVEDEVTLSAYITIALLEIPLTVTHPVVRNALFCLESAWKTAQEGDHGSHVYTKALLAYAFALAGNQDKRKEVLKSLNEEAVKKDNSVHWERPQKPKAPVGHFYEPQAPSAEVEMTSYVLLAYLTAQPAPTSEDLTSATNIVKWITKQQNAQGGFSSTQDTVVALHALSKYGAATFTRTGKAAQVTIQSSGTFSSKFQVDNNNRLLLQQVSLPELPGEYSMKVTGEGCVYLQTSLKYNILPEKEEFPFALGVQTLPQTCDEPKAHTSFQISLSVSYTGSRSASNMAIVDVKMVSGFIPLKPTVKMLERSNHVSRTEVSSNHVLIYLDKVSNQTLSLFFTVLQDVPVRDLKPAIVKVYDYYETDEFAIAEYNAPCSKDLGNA
In words: Ac-RQAR-AMC activity of protease after 5 min in human citrated plasma, with and without M84R ecotin. The procedure:
In addition, the percent protease unbound by alpha-2 macroglobulin (a2M) also was determined. Inactivation of a protease by alpha-2 macroglobulin traps the protease in a complex where it is still able to turn over small fluorescent substrates, but unable to access large protein substrates. This property of alpha-2 macroglobulin complicates the assessment of a proteases activity in plasma. To determine the actual activity of the free, uncomplexed protease in plasma, a two step measurement is required. First, the sample's activity on fluorescent substrates is measured. […] The percent unbound by alpha-2 macroglobulin activity is the percentage of the plasma residual activity that is inhibited by the addition of the ecotin. Briefly, in a 0.2 mL PCR tube, 1 μL 10× protease was mixed with 9 μL human plasma in citrate (Innovative Research). A uninhibted control also was prepeared containing 1 μL 10× protease mixed with 9 μL PBST. The mixtures were incubated for 5 minutes at 37° C. The samples were diluted 250 fold in PBST and stored on ice. Two 50 μL aliquots for each sample were transferred to an opaque assay plate (Costar #3694) containing 2 μL PBST or 2 μL 520 nM M84R ecotin. The plates were incubated 10 minutes at room temperature. Five microliters 0.4 mM Ac-RQAR-AMC substrate was added and the fluorescence was measured over time with a SpectraMax M5 spectrafluorometer (Molecular Devices) set to read every 20 seconds for 30 minutes at 30° C. (Ex: 380 nm, EM: 450 nm, Cut-off: 435 nm). The percent unbound by alpha-2 macroglobulin was calculated with the following formula: (1-([(Protease in plasma/Protease in PBST)−(Protease in plasma+ecotin/Protease in PBST)]/(Protease in plasma/Protease in PBST)))*100.

B1: modified MT-SP1 CB155 (Y146D/K224F) protease domain (enzyme)
chain: VVGGTDADEGEWPWQVSLHALGQGHICGASLISPNWLVSAAHCYIDDRGFRYSDPTQWTAFLGLHDQSQRSAPGVQERRLKRIISHPFFNDFTFDYDIALLELEKPAEYSSMVRPICLPDASHVFPAGKAIWVTGWGHTQDGGTGALILQKGEIRVINQTTCENLLPQQITPRMMCVGFLSGGVDSCQGDSGGPLSSVEADGRIFQAGVVSWGDGCAQRNFPGVYTRLPLFRDWIKENTGV
Take B1: in test [1], the “IC50 based on gel densitometry of C2 cleavage products (purified C2)” value is 2.2 nM; the “IC50 for hemolysis in C2 depleted serum supplemented with protease-treated C2” value came to 17 nM; the “IC50 of the proteases for cleavage of C2 (Western blot densitometry, 5% human plasma, 1 h 37 C)” value was determined as 18.4 nM. Besides, the binding result in test [2] is listed as “binds”.

B2: modified MT-SP1 CB490 (I41T/Y146E/G151L/Q175D/K224R) protease domain (enzyme)
chain: VVGGTDADEGEWPWQVSLHALGQGHTCGASLISPNWLVSAAHCYIDDRGFRYSDPTQWTAFLGLHDQSQRSAPGVQERRLKRIISHPFFNDFTFDYDIALLELEKPAEYSSMVRPICLPDASHVFPAGKAIWVTGWGHTQEGGTLALILQKGEIRVINQTTCENLLPQDITPRMMCVGFLSGGVDSCQGDSGGPLSSVEADGRIFQAGVVSWGDGCAQRNRPGVYTRLPLFRDWIKENTGV
Consider B2, for which, in test [3], the “% Unbound by a2M” value was determined as 0%.

B3: modified MT-SP1 CB489 (I41T/Y146E/G151L/Q175D/K224L) protease domain (enzyme)
chain: VVGGTDADEGEWPWQVSLHALGQGHTCGASLISPNWLVSAAHCYIDDRGFRYSDPTQWTAFLGLHDQSQRSAPGVQERRLKRIISHPFFNDFTFDYDIALLELEKPAEYSSMVRPICLPDASHVFPAGKAIWVTGWGHTQEGGTLALILQKGEIRVINQTTCENLLPQDITPRMMCVGFLSGGVDSCQGDSGGPLSSVEADGRIFQAGVVSWGDGCAQRNLPGVYTRLPLFRDWIKENTGV
On to B3, for which the “% Unbound by a2M” value in test [3] turned out to be 58%.
